Consider one molecule from article PMC4461315, “A Mutant Library Approach to Identify Improved Meningococcal Factor H Binding Protein Vaccine Antigens” (PLoS ONE, 2015).

The target of the assay is T1, human complement Factor H (human, UniProt P08603 19-1231).
T1 construct: also called FH; human FH; source: bought: Complement Technologies (purified human FH)
In words: SPR. The following applies: both partners purified.

T1 sequence (P08603 19-1231): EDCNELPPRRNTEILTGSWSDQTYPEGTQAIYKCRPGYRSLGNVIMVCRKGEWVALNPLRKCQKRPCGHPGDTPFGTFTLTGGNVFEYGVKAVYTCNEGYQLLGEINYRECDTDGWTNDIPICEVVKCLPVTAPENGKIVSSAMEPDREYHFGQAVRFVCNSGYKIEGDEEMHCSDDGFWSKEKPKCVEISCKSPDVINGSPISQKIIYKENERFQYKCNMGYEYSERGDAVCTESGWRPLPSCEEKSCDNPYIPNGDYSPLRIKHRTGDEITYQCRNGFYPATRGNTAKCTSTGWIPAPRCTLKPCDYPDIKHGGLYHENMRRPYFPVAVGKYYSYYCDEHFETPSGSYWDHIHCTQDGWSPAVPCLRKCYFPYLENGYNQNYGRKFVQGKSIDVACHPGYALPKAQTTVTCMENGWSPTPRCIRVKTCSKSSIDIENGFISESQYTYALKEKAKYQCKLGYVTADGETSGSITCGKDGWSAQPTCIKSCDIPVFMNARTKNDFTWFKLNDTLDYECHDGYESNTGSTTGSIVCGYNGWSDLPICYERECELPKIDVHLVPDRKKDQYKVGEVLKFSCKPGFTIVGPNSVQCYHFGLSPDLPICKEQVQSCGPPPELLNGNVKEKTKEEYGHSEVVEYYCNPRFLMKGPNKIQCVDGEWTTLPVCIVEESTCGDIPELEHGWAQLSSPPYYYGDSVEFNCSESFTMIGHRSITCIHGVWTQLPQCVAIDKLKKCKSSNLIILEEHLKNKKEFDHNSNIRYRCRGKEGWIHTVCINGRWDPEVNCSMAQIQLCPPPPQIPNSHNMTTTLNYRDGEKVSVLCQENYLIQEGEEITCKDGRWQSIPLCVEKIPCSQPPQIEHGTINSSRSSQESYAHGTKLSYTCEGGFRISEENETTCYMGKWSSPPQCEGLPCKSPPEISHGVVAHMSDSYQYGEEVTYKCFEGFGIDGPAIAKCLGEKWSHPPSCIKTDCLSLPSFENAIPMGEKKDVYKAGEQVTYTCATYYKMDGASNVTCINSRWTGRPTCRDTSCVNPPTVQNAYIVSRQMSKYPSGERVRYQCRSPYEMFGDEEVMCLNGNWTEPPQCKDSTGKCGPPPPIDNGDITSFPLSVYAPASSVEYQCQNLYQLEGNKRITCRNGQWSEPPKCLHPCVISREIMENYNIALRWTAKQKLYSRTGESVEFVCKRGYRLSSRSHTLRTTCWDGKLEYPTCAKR

B1: wild-type FHbp ID 1, soluble recombinant (natural protein)
chain: CSSGGGGVAADIGAGLADALTAPLDHKDKGLQSLTLDQSVRKNEKLKLAAQGAEKTYGNGDSLNTGKLKNDKVSRFDFIRQIEVDGQLITLESGEFQVYKQSHSALTAFQTEQIQDSEHSGKMVAKRQFRIGDIAGEHTSFDKLPEGGRATYRGTAFGSDDAGGKLTYTIDFAAKQGNGKIEHLKSPELNVDLAAADIKPDGKRHAVISGSVLYNQAEKGSYSLGIFGGKAQEVAGSAEVKTVNGIRHIGLAAKQ
notes: also called WT
Consider B1, for which the affinity, expressed as Kd, was 17 nM.

As usually defined, the Kd is a measure of binding affinity in units of concentration. High values mean lower affinity, low ones higher affinity.
